Data on 5 molecules can be found in article PMC8649222, “Exclusive inhibition of IL-6 trans-signaling by soluble gp130^FlyRFc” (Cytokine: X, 2021).

B2: Hyper IL-11 (HIL-11), IL-11 covalently linked to sIL-11R (other)
chain: SSPCPQAWGPPGVQYGQPGRSVKLCCPGVTAGDPVSWFRDGEPKLLQGPDSGLGHELVLAQADSTDEGTYICQTLDGALGGTVTLQLGYPPARPVVSCQAADYENFSCTWSPSQISGLPTRYLTSYRKKTVLGADSQRRSPSTGPWPCPQDPLGAARCVVHGAEFWSQYRINVTEVNPLGASTRLLDVSLQSILRPDPPQGLRVESVPGYPRRLRASWTYPASWPCQPHFLLKFRLQYRPAQHPAWSTVEPAGLEEVITDAVAGLPHAVRVSARDFLDAGTWSTWSPEAWGTPSTGTIPKEIPAWGQLHTQPEVEPQVDSPAPPRPSLQPHPRLLDHRDSVEQVAVLAPGPPPGPPRVSPDPRAELDSTVLLTRSLLADTRQLAAQLRDKFPADGDHNLDSLPTLAMSAGALGALQLPGVLTRLRADLLSYLRHVQWLRRAGGSSLKTLEPELGTLQARLDRLLRRLQLLMSRLALPQPPPDPPAPPLAPPSSAWGGIRAAHAILGGLHLTLDWAVRGLLLLKTRL
B3: sgp130Fc (Fc fusion, human, UniProt P40189 23-619, looked up)
chain: ELLDPCGYISPESPVVQLHSNFTAVCVLKEKCMDYFHVNANYIVWKTNHFTIPKEQYTIINRTASSVTFTDIASLNIQLTCNILTFGQLEQNVYGITIISGLPPEKPKNLSCIVNEGKKMRCEWDGGRETHLETNFTLKSEWATHKFADCKAKRDTPTSCTVDYSTVYFVNIEVWVEAENALGKVTSDHINFDPVYKVKPNPPHNLSVINSEELSSILKLTWTNPSIKSVIILKYNIQYRTKDASTWSQIPPEDTASTRSSFTVQDLKPFTEYVFRIRCMKEDGKGYWSDWSEEASGITYEDRPSKAPSFWYKIDPSHTQGYRTVQLVWKTLPPFEANGKILDYEVTLTRWKSHLQNYTVNATKLTVNLTNDRYLATLTVRNLVGKSDAAVLTIPACDFQATHPVMDLKAFPKDNMLWVEWTTPRESVKKYILEWCVLSDKAPCITDWQQEDGTVHRTYLRGNLAESKCYLITVTPVYADGPGSPESIKAYLKQAPPSKGPTVRTKKVGKNEAVLEWDQLPVDVQNGFIRNYTIFYRTIIGNETAVNVDSSHTEYTLSSLTSDTLYMVRMAAYTDEGGKDGPEFTFTTPKFAQGEIE
B4: sgp130^FlyFc (Fc fusion, human, UniProt P40189 23-619, looked up)
chain: ELLDPCGYISPESPVVQLHSNFTAVCVLKEKCMDYFHVNANYIVWKTNHFTIPKEQYTIINRTASSVTFTDIASLNIQLYCNILTFGQLEFLVYGITIISGLPPEKPKNLSCIVNEGKKMRCEWDGGRETHLETNFTLKSEWATHKFADCKAKRDTPTSCTVDYSTVYFVNIEVWVEAENALGKVTSDHINFDPVYKVKPNPPHNLSVINSEELSSILKLTWTNPSIKSVIILKYNIQYRTKDASTWSQIPPEDTASTRSSFTVQDLKPFTEYVFRIRCMKEDGKGYWSDWSEEASGITYEDRPSKAPSFWYKIDPSHTQGYRTVQLVWKTLPPFEANGKILDYEVTLTRWKSHLQNYTVNATKLTVNLTNDRYLATLTVRNLVGKSDAAVLTIPACDFQATHPVMDLKAFPKDNMLWVEWTTPRESVKKYILEWCVLSDKAPCITDWQQEDGTVHRTYLRGNLAESKCYLITVTPVYADGPGSPESIKAYLKQAPPSKGPTVRTKKVGKNEAVLEWDQLPVDVQNGFIRNYTIFYRTIIGNETAVNVDSSHTEYTLSSLTSDTLYMVRMAAYTDEGGKDGPEFTFTTPKFAQGEIE
B5: sgp130^R281QFc (Fc fusion, human, UniProt P40189 23-619, looked up)
chain: ELLDPCGYISPESPVVQLHSNFTAVCVLKEKCMDYFHVNANYIVWKTNHFTIPKEQYTIINRTASSVTFTDIASLNIQLTCNILTFGQLEQNVYGITIISGLPPEKPKNLSCIVNEGKKMRCEWDGGRETHLETNFTLKSEWATHKFADCKAKRDTPTSCTVDYSTVYFVNIEVWVEAENALGKVTSDHINFDPVYKVKPNPPHNLSVINSEELSSILKLTWTNPSIKSVIILKYNIQYRTKDASTWSQIPPEDTASTQSSFTVQDLKPFTEYVFRIRCMKEDGKGYWSDWSEEASGITYEDRPSKAPSFWYKIDPSHTQGYRTVQLVWKTLPPFEANGKILDYEVTLTRWKSHLQNYTVNATKLTVNLTNDRYLATLTVRNLVGKSDAAVLTIPACDFQATHPVMDLKAFPKDNMLWVEWTTPRESVKKYILEWCVLSDKAPCITDWQQEDGTVHRTYLRGNLAESKCYLITVTPVYADGPGSPESIKAYLKQAPPSKGPTVRTKKVGKNEAVLEWDQLPVDVQNGFIRNYTIFYRTIIGNETAVNVDSSHTEYTLSSLTSDTLYMVRMAAYTDEGGKDGPEFTFTTPKFAQGEIE

Assay [1] addresses B3. Nature of the assay: SPR; sgp130Fc and sgp130^FlyFc captured on a ProtA chip; increasing concentrations of IL-27 injected. The conditions noted are these: both partners purified.
For assay [2], the target named is B4. The assay is described as above. The conditions noted are these: both partners purified.
Assay [3] deals with B3. As to the kind of experiment: SPR; Biacore X100, multi-cycle; sgp130Fc variants captured on a Protein A chip (~500 RU); HIL-6 or HIL-11 injected at 0.1953-50 nM, 30 µl/min; 25 °C, PBS pH 7.4, 0.05% surfactant P20; 1:1 binding model. The conditions noted are these: both partners purified.
Assay [4] deals with B4. The description is as above. The conditions noted are these: both partners purified.
The assay “sgp130^R281QFc” concerns the target B5. The description is as above. The conditions noted are these: both partners purified.
For assay [5], the target named is B2. Nature of the assay: cell-based or functional assay.

B1: IL-27 (complex)
chain 1: FPRPPGRPQLSLQELRREFTVSLHLARKLLSEVRGQAHRFAESHLPGVNLYLLPLGEQLPDVSLTFQAWRRLSDPERLCFISTTLQPFHALLGGLGTQGRWTNMERMQLWAMRLDLRDLQRHLRFQVLAAGFNLPEEEEEEEEEEEEERKGLLPGALGSALQGPAQVSWPQLLSTYRLLHSLELVLSRAVRELLLLSKAGHSVWPLGFPTLSPQP
chain 2: RKGPPAALTLPRVQCRASRYPIAVDCSWTLPPAPNSTSPVSFIATYRLGMAARGHSWPCLQQTPTSTSCTITDVQLFSMAPYVLNVTAVHPWGSSSSFVPFITEHIIKPDPPEGVRLSPLAERQLQVQWEPPGSWPFPEIFSLKYWIRYKRQGAARFHRVGPIEATSFILRAVRPRARYYVQVAAQDLTDYGELSDWSLPATATMSLGK
Regarding B1, the equilibrium dissociation constant (Kd) (commonly a measure of binding affinity in units of concentration) with sgp130Fc [1] is 69 nM; with sgp130^FlyFc [2], 58 nM.

Regarding B2, the Kd with sgp130Fc [3] worked out at 0.069 nM; with sgp130^FlyFc [4], 0.67 nM; in the assay with sgp130^R281QFc, 0.61 nM.

B3: the “IC50 of inhibition of H-IL-11 (10 ng/ml) induced proliferation of Ba/F3-gp130 cells (blocks HIL-11 from membrane-bound gp130)” value in assay [5] was determined as 0.12 nM.

As to B4, in assay [5], the “IC50 of inhibition of H-IL-11 (10 ng/ml) induced proliferation of Ba/F3-gp130 cells (blocks HIL-11 from membrane-bound gp130)” value amounted to 40.7 nM.

With B5, the “IC50 of inhibition of H-IL-11 (10 ng/ml) induced proliferation of Ba/F3-gp130 cells (blocks HIL-11 from membrane-bound gp130)” value in assay [5] came out at 72.8 nM.
